Laboratory results reported in publication PMC11626169.

T1: GST-HY5 (Arabidopsis thaliana, UniProt O24646 1-168)
T1 sequence: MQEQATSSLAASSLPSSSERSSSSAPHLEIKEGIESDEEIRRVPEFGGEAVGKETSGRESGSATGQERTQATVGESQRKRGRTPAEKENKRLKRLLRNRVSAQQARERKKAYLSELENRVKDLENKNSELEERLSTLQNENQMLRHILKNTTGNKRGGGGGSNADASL


Target: T1, GST-HY5
Test: EMSA

| Binder | binding result |
| --- | --- |
| NST3 promoter Probe 1 (dsDNA) DNA 1: CATGACATTACACGTCAAAAGAAATATGTCTTACGTCAGAACTTACGTAT DNA 2: ATACGTAAGTTCTGACGTAAGACATATTTCTTTTGACGTGTAATGTCATG | binds |
| NST3 promoter Probe 2 (dsDNA) DNA 1: AATTAACATGGTAGAATGTAGATGACGTAGATCATGAAACGAGTGTGTGA DNA 2: TCACACACTCGTTTCATGATCTACGTCATCTACATTCTACCATGTTAATT | binds |
